Laboratory results: publication PMC7337490

Legend:
[1] = target: T1, GFP-MKLP2 WT (human), O95235; assay: SEC; 1 mg lysate of nocodazole-arrested HeLa cells on Superose 6 10/300 at 4°C; fractions Western blotted for MKLP2 and GFP; size from calibration standards; conditions: remark: other sources report otherwise
T1 chain: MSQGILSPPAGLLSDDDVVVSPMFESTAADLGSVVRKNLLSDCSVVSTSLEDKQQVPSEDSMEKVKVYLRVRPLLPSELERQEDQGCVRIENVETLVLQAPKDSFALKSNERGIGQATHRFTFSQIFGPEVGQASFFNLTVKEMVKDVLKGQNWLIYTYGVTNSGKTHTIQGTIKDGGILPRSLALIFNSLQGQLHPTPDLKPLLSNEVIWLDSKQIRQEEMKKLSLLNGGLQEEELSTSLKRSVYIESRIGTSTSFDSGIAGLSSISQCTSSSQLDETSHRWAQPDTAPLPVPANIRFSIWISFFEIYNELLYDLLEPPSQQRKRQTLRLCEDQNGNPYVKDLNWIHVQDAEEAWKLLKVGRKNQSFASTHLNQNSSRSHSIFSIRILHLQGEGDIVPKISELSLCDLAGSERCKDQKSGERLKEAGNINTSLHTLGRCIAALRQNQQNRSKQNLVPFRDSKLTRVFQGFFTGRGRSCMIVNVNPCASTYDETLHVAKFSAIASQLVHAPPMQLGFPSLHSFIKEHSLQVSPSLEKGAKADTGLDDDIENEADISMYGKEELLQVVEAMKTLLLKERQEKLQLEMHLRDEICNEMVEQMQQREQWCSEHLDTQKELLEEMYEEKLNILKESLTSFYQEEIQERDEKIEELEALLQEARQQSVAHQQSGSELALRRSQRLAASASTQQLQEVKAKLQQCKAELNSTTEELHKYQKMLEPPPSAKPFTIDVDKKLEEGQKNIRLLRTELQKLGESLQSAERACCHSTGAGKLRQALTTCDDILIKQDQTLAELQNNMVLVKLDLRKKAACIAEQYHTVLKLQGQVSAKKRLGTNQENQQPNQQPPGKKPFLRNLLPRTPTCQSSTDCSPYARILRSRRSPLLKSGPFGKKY

[2] = target: T2, MKLP2 (endogenous) (human (endogenous in HeLa)), O95235; assay: as above; conditions: remark: other sources report otherwise
T2 chain: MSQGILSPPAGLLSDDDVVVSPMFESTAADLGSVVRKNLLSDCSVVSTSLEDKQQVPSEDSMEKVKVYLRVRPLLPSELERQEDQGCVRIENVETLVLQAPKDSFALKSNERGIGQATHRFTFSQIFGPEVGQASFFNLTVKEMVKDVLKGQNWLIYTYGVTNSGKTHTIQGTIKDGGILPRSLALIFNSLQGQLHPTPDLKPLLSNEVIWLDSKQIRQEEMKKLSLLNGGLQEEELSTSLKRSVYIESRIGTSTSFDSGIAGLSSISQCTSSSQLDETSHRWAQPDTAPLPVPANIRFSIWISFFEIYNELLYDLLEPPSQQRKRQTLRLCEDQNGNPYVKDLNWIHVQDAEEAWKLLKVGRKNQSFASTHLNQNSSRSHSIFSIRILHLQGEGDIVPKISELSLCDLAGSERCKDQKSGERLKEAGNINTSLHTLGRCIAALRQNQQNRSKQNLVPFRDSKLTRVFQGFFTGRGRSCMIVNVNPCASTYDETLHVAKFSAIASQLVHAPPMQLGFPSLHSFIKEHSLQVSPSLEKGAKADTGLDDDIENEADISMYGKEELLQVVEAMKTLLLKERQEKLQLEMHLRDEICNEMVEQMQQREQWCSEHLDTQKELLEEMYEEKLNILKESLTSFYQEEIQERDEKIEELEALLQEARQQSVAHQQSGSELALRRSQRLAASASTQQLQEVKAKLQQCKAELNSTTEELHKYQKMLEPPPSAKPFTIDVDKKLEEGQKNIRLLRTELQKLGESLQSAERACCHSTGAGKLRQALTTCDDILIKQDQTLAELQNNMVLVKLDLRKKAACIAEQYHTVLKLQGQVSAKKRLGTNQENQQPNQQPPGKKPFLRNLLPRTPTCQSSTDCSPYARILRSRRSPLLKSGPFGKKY

Binder | stoichiometry N [1] | stoichiometry N [2]
GFP-MKLP2 WT, O95235 1-890 (natural protein) MSQGILSPPAGLLSDDDVVVSPMFESTAADLGSVVRKNLLSDCSVVSTSLEDKQQVPSEDSMEKVKVYLRVRPLLPSELERQEDQGCVRIENVETLVLQAPKDSFALKSNERGIGQATHRFTFSQIFGPEVGQASFFNLTVKEMVKDVLKGQNWLIYTYGVTNSGKTHTIQGTIKDGGILPRSLALIFNSLQGQLHPTPDLKPLLSNEVIWLDSKQIRQEEMKKLSLLNGGLQEEELSTSLKRSVYIESRIGTSTSFDSGIAGLSSISQCTSSSQLDETSHRWAQPDTAPLPVPANIRFSIWISFFEIYNELLYDLLEPPSQQRKRQTLRLCEDQNGNPYVKDLNWIHVQDAEEAWKLLKVGRKNQSFASTHLNQNSSRSHSIFSIRILHLQGEGDIVPKISELSLCDLAGSERCKDQKSGERLKEAGNINTSLHTLGRCIAALRQNQQNRSKQNLVPFRDSKLTRVFQGFFTGRGRSCMIVNVNPCASTYDETLHVAKFSAIASQLVHAPPMQLGFPSLHSFIKEHSLQVSPSLEKGAKADTGLDDDIENEADISMYGKEELLQVVEAMKTLLLKERQEKLQLEMHLRDEICNEMVEQMQQREQWCSEHLDTQKELLEEMYEEKLNILKESLTSFYQEEIQERDEKIEELEALLQEARQQSVAHQQSGSELALRRSQRLAASASTQQLQEVKAKLQQCKAELNSTTEELHKYQKMLEPPPSAKPFTIDVDKKLEEGQKNIRLLRTELQKLGESLQSAERACCHSTGAGKLRQALTTCDDILIKQDQTLAELQNNMVLVKLDLRKKAACIAEQYHTVLKLQGQVSAKKRLGTNQENQQPNQQPPGKKPFLRNLLPRTPTCQSSTDCSPYARILRSRRSPLLKSGPFGKKY | 2 | 
MKLP2 (endogenous), O95235 1-890 (natural protein) MSQGILSPPAGLLSDDDVVVSPMFESTAADLGSVVRKNLLSDCSVVSTSLEDKQQVPSEDSMEKVKVYLRVRPLLPSELERQEDQGCVRIENVETLVLQAPKDSFALKSNERGIGQATHRFTFSQIFGPEVGQASFFNLTVKEMVKDVLKGQNWLIYTYGVTNSGKTHTIQGTIKDGGILPRSLALIFNSLQGQLHPTPDLKPLLSNEVIWLDSKQIRQEEMKKLSLLNGGLQEEELSTSLKRSVYIESRIGTSTSFDSGIAGLSSISQCTSSSQLDETSHRWAQPDTAPLPVPANIRFSIWISFFEIYNELLYDLLEPPSQQRKRQTLRLCEDQNGNPYVKDLNWIHVQDAEEAWKLLKVGRKNQSFASTHLNQNSSRSHSIFSIRILHLQGEGDIVPKISELSLCDLAGSERCKDQKSGERLKEAGNINTSLHTLGRCIAALRQNQQNRSKQNLVPFRDSKLTRVFQGFFTGRGRSCMIVNVNPCASTYDETLHVAKFSAIASQLVHAPPMQLGFPSLHSFIKEHSLQVSPSLEKGAKADTGLDDDIENEADISMYGKEELLQVVEAMKTLLLKERQEKLQLEMHLRDEICNEMVEQMQQREQWCSEHLDTQKELLEEMYEEKLNILKESLTSFYQEEIQERDEKIEELEALLQEARQQSVAHQQSGSELALRRSQRLAASASTQQLQEVKAKLQQCKAELNSTTEELHKYQKMLEPPPSAKPFTIDVDKKLEEGQKNIRLLRTELQKLGESLQSAERACCHSTGAGKLRQALTTCDDILIKQDQTLAELQNNMVLVKLDLRKKAACIAEQYHTVLKLQGQVSAKKRLGTNQENQQPNQQPPGKKPFLRNLLPRTPTCQSSTDCSPYARILRSRRSPLLKSGPFGKKY |  | 2
